This note sets out measurements from article PMC11405395 (The EMBO Journal, 2024).

Holding throughout (conditions): both partners purified
The target of assay [1] is T1, GINS tetramer (Sld5, Psf1, Psf2, Psf3), S. cerevisiae (S. cerevisiae, UniProt Q03406 1-294; Q12488 1-208; P40359 1-213; Q12146 1-194).
T1 construct: Sld5, GINS subunit, S. cerevisiae; Psf1, GINS subunit, S. cerevisiae; Psf2, GINS subunit, S. cerevisiae; Psf3, GINS subunit, S. cerevisiae; pJL005 with TwinStrep-Psf3; also called tetrameric GINS complex; source: purified as previously described (Yeeles et al, 2015; Lewis et al, 2022); copies: + + +
T1 sequence (looked up) 1: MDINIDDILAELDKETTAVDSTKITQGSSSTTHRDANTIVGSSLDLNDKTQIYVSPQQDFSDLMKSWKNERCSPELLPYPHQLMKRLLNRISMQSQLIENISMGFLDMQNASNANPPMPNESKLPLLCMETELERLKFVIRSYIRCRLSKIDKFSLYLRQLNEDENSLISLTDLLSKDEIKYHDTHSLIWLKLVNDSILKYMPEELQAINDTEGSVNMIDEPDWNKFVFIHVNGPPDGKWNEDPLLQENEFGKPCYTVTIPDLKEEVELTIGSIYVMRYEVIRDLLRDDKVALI
T1 sequence (looked up) 2: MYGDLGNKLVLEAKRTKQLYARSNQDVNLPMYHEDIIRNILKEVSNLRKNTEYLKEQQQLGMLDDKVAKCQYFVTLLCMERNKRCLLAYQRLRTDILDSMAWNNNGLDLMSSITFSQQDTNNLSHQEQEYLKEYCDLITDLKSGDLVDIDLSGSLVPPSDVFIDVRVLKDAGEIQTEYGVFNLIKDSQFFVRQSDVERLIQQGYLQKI
T1 sequence (looked up) 3: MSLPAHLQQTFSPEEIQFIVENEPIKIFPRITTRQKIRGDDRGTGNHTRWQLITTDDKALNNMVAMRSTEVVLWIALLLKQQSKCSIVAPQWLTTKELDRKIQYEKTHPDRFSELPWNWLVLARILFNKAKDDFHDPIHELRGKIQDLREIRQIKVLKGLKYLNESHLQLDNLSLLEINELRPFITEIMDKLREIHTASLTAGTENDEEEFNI
T1 sequence (looked up) 4: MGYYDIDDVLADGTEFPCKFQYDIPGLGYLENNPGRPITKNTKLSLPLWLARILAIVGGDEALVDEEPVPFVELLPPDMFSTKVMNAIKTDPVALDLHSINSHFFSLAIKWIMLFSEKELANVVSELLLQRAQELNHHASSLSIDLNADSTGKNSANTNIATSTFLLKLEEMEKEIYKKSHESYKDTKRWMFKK
The assay can be described thus: co-IP; purified proteins mixed: 10 nM FLAG-Rrm3 with 15 nM GINS, 10 min on ice; anti-FLAG M2 magnetic beads; 25 mM Hepes-KOH pH 7.6, 200 mM KOAc, 0.02% NP-40-S, 0.1 mg/mL BSA, 1 mM DTT, 10 mM Mg(OAc)2; immunoblotting. In general terms: A western blot detects proteins with antibodies after separation by electrophoresis.

The target of assay [2] is T2, DNA polymerase ε (Pol2, Dpb2, Dpb3, Dpb4), S. cerevisiae (S. cerevisiae, UniProt P21951 1-2222; P24482 1-689; P27344 1-201; Q04603 1-196).
T2 construct: Pol2, catalytic subunit of DNA polymerase ε, S. cerevisiae; Dpb2, second largest subunit of DNA polymerase ε, S. cerevisiae; Dpb3, subunit of DNA polymerase ε, S. cerevisiae; Dpb4, subunit of DNA polymerase ε, S. cerevisiae (DPB4-TEV-CBP); also called Polε; Pol ε; source: S. cerevisiae strain yAJ2, purified as previously described (Yeeles et al, 2015); copies: + + +
Description: co-IP; purified proteins mixed: 10 nM FLAG-Rrm3 with 15 nM Pol ε, 10 min on ice; anti-FLAG M2 magnetic beads; 25 mM Hepes-KOH pH 7.6, 400 mM KOAc, 0.02% NP-40-S, 0.1 mg/mL BSA, 1 mM DTT, 10 mM Mg(OAc)2; immunoblotting.

In assay [3] the target is T3, CMGE (budding yeast CMG helicase, Cdc45-Mcm2-7-GINS, together with DNA polymerase ε) (S. cerevisiae, UniProt P29469 1-868; P24279 1-971; P30665 1-933; P29496 1-775; P53091 1-1017; P38132 …).
T3 construct: Mcm2, S. cerevisiae, subunit of CMG; Mcm3, S. cerevisiae, subunit of CMG (CBP-TEV-MCM3); Mcm4, S. cerevisiae, subunit of CMG; Mcm5, S. cerevisiae, subunit of CMG; Mcm6, S. cerevisiae, subunit of CMG; Mcm7, S. cerevisiae, subunit of CMG; Cdc45, S. cerevisiae, subunit of CMG (CDC45iFLAG2, internal FLAG tag; detected by anti-FLAG immunoblotting); Sld5, S. cerevisiae, GINS subunit of CMG …
Description: co-IP; purified proteins mixed: 1–10 nM Rrm3/Rrm3N-BacPif1/BacPif1 with 15 nM CMG and 30 nM Pol ε, 10 min on ice; anti-Sld5 beads, 30 min 4 °C; 25 mM Hepes-KOH pH 7.6, 400 mM KOAc, 0.02% NP-40-S, 0.1 mg/mL BSA, 1 mM DTT, 10 mM Mg(OAc)2; immunoblotting.

The target of assay [4] is T4, Homo sapiens CMG helicase (CDC45-MCM2-7-GINS) (human, UniProt P49736 1-904; P25205 1-808; P33991 1-863; P33992 1-734; Q14566 1-821; P33993 …).
T4 construct: MCM2, human, subunit of CMG; MCM3, human, subunit of CMG; MCM4, human, subunit of CMG; MCM5, human, subunit of CMG; MCM6, human, subunit of CMG; MCM7, human, subunit of CMG; CDC45, human, subunit of CMG; SLD5 (GINS4), human, GINS subunit of CMG (PrA-3TEV-HsSld5; eluted from IgG Sepharose with TEV protease); PSF1 (GINS1), human, GINS subunit of CMG; PSF2 (GINS2), human, GINS subunit of CMG; PSF3 …
The assay can be described thus: co-IP; purified proteins mixed: 10 nM RTEL1-FLAG with 15 nM hsCMG, 10 min on ice; anti-FLAG M2 magnetic beads; 25 mM Hepes-KOH pH 7.6, 100 mM KOAc, 0.02% NP-40-S, 0.1 mg/mL BSA, 1 mM DTT, 10 mM Mg(OAc)2; immunoblotting.

Assay [5] concerns the target T5, Homo sapiens DNA polymerase ε (POLE1, POLE2, POLE3, POLE4) (human, UniProt Q07864 1-2286; P56282 1-527; Q9NRF9 1-147; Q9NR33 1-117).
T5 construct: POLE1 (catalytic subunit of DNA polymerase ε), human; POLE2 (homologue of budding yeast Dpb2), human (PolE2_tev_2XFLAG; tag removed with TEV protease); POLE3, human; POLE4, human; The methods call the removed tag 3FLAG, the strain and plasmid 2XFLAG; also called hsPOL ε; POL ε; source: S. cerevisiae strain ySP061, purified (anti-FLAG M2 resin, TEV cleavage, MonoQ, Superdex 200); not shown: …
Description: co-IP; purified proteins mixed: 10 nM RTEL1-FLAG with 15 nM hsPol ε, 10 min on ice; anti-FLAG M2 magnetic beads; 25 mM Hepes-KOH pH 7.6, 200 mM KOAc, 0.02% NP-40-S, 0.1 mg/mL BSA, 1 mM DTT, 10 mM Mg(OAc)2; immunoblotting.

Changes are numbered by the printed parent chain. Names may count otherwise.

T2 sequence (P21951 whole entry, chain 1 of 4): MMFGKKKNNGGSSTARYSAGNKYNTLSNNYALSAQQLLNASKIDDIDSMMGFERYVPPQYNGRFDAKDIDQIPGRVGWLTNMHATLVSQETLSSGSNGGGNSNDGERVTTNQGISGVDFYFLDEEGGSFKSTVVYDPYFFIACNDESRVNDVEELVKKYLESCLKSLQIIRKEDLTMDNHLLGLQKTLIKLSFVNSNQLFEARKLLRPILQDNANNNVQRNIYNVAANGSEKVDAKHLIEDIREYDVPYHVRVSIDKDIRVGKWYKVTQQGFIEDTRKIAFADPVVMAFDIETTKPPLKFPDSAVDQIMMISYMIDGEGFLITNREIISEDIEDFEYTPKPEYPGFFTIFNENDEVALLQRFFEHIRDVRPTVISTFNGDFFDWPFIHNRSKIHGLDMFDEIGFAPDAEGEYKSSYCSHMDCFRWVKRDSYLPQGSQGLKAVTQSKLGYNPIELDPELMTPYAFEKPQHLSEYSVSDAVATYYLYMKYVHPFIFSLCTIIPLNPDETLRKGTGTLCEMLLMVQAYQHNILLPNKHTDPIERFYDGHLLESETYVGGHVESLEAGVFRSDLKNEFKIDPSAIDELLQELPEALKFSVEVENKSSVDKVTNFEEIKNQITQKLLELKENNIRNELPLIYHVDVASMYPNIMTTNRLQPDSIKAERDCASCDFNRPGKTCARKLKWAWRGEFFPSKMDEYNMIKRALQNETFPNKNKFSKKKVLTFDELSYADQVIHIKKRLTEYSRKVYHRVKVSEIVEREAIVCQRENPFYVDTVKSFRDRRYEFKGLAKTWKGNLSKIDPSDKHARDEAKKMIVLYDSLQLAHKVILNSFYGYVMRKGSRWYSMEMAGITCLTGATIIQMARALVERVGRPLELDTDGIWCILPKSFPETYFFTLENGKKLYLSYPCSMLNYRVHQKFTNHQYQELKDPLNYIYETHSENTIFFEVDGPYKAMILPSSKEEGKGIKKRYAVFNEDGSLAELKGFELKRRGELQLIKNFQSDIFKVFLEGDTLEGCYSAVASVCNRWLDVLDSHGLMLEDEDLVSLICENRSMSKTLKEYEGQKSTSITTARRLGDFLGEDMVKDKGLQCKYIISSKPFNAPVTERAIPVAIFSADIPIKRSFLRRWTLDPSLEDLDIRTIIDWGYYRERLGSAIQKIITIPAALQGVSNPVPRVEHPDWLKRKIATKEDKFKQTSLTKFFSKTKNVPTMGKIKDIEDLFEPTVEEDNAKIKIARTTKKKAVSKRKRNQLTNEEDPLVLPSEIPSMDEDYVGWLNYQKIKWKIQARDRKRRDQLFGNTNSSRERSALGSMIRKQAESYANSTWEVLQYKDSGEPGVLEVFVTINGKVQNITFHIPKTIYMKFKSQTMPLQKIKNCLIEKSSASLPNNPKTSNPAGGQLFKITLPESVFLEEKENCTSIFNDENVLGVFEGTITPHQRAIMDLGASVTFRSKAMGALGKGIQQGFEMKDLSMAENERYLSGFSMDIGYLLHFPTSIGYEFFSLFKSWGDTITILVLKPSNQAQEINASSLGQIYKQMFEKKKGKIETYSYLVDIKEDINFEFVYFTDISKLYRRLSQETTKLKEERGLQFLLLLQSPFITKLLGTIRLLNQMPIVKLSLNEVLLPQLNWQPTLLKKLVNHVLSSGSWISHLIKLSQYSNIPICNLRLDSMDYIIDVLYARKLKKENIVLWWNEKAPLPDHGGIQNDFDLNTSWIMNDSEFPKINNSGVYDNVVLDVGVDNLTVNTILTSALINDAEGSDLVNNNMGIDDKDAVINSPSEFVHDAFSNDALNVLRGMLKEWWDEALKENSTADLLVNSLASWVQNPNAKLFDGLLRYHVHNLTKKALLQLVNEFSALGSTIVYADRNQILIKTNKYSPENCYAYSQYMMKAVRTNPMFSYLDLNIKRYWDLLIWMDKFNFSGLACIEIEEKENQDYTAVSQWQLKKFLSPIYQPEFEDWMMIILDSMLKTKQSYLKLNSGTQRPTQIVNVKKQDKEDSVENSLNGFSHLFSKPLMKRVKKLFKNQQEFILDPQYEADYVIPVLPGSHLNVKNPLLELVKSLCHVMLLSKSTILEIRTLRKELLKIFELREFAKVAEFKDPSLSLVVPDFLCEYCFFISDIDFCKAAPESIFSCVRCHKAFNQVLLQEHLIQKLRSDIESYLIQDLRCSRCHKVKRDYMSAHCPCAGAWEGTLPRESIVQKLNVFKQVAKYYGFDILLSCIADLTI
T2 sequence (P24482 whole entry, chain 2 of 4): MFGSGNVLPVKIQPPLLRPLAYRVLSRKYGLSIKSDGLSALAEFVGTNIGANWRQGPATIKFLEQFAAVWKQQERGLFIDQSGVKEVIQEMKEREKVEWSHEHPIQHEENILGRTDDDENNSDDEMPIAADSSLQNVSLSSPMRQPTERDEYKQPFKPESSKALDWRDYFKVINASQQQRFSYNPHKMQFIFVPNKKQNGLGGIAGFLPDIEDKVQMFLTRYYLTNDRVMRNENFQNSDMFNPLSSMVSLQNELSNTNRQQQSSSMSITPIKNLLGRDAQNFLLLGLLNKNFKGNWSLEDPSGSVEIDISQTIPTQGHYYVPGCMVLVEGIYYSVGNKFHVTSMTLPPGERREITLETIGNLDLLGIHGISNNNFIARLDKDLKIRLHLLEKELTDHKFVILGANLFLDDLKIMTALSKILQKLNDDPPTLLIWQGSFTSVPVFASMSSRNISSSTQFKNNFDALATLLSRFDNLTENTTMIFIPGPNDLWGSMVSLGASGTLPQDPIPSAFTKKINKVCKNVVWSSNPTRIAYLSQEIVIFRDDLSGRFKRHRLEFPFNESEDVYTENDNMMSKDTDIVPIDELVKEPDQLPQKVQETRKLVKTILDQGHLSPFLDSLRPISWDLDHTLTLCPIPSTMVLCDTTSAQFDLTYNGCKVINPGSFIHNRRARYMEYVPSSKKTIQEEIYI
T2 sequence (P27344 whole entry, chain 3 of 4): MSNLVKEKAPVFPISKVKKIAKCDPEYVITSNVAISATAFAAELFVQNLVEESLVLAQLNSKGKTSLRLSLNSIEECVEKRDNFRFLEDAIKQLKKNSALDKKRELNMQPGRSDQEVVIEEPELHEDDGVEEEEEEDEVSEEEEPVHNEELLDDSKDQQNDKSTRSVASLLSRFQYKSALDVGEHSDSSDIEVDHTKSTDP
T2 sequence (Q04603 whole entry, chain 4 of 4): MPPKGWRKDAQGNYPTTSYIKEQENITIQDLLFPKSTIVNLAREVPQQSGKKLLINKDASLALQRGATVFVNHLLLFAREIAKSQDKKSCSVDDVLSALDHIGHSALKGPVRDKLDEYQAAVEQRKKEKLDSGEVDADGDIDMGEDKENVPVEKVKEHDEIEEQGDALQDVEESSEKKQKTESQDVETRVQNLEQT

B1: Rrm3 (wild-type, FLAG-tagged) (enzyme, S. cerevisiae, UniProt P38766 1-723, looked up)
chain: MFRSHASGNKKQWSKRSSNGSTPAASASGSHAYRQQTLSSFFMGCGKKSAAASKNSTTIIDLESGDEGNRNITAPPRPRLIRNNSSSLFSQSQGSFGDDDPDAEFKKLVDVPRLNSYKKSSRSLSMTSSLHKTASASTTQKTYHFDEDETLREVTSVKSNSRQLSFTSTINIEDSSMKLSTDSERPAKRSKPSMEFQGLKLTVPKKIKPLLRKTVSNMDSMNHRSASSPVVLTMEQERVVNLIVKKRTNVFYTGSAGTGKSVILQTIIRQLSSLYGKESIAITASTGLAAVTIGGSTLHKWSGIGIGNKTIDQLVKKIQSQKDLLAAWRYTKVLIIDEISMVDGNLLDKLEQIARRIRKNDDPFGGIQLVLTGDFFQLPPVAKKDEHNVVKFCFESEMWKRCIQKTILLTKVFRQQDNKLIDILNAIRYGELTVDIAKTIRNLNRDIDYADGIAPTELYATRREVELSNVKKLQSLPGDLYEFKAVDNAPERYQAILDSSLMVEKVVALKEDAQVMMLKNKPDVELVNGSLGKVLFFVTESLVVKMKEIYKIVDDEVVMDMRLVSRVIGNPLLKESKEFRQDLNARPLARLERLKILINYAVKISPHKEKFPYVRWTVGKNKYIHELMVPERFPIDIPRENVGLERTQIPLMLCWALSIHKAQGQTIQRLKVDLRRIFEAGQVYVALSRAVTMDTLQVLNFDPGKIRTNERVKDFYKRLETLK
notes: Rrm3 Pif1-family 5'-3' DNA helicase, S. cerevisiae; helicase domain printed as residues 230-723; Gene codon optimised for expression; a TEV site lies between the 3FLAG tag and Rrm3; also called WT Rrm3; full-length Rrm3; source: S. cerevisiae strain yTDK9, purified (anti-FLAG M2 resin, HiTrap heparin); not shown: 3FLAG, N-terminal, kept
As to B1, the binding result in assay [1], in assay [2] and in assay [3] was “binds” throughout.

B2: Rrm3-2E (Rrm3 K118E, R122E) (enzyme, S. cerevisiae, UniProt P38766 1-723, looked up)
chain: B1 chain with K118E, R122E
notes: Built in the wild-type expression plasmid pTDK15 (pOO8); also called 3FLAG-TEV-RRM3-2E; source: S. cerevisiae strain yOO4, purified (anti-FLAG M2 resin, HiTrap heparin); not shown: 3FLAG, N-terminal, kept
As to B2, the binding result in assay [2] and in assay [3] was “binds” in each case.

B3: RTEL1ΔE813-E821 (enzyme, human, UniProt Q9NZ71-1 1-1219, looked up)
chain: MPKIVLNGVTVDFPFQPYKCQQEYMTKVLECLQQKVNGILESPTGTGKTLCLLCTTLAWREHLRDGISARKIAERAQGELFPDRALSSWGNAAAAAGDPIACYTDIPKIIYASRTHSQLTQVINELRNTSYRPKVCVLGSREQLCIHPEVKKQESNHLQIHLCRKKVASRSCHFYNNVEEKSLEQELASPILDIEDLVKSGSKHRVCPYYLSRNLKQQADIIFMPYNYLLDAKSRRAHNIDLKGTVVIFDEAHNVEKMCEESASFDLTPHDLASGLDVIDQVLEEQTKAAQQGEPHPEFSADSPSPGLNMELEDIAKLKMILLRLEGAIDAVELPGDDSGVTKPGSYIFELFAEAQITFQTKGCILDSLDQIIQHLAGRAGVFTNTAGLQKLADIIQIVFSVDPSEGSPGSPAGLGALQSYKVHIHPDAGHRRTAQRSDAWSTTAARKRGKVLSYWCFSPGHSMHELVRQGVRSLILTSGTLAPVSSFALEMQIPFPVCLENPHIIDKHQIWVGVVPRGPDGAQLSSAFDRRFSEECLSSLGKALGNIARVVPYGLLIFFPSYPVMEKSLEFWRARDLARKMEALKPLFVEPRSKGSFSETISAYYARVAAPGSTGATFLAVCRGKASEGLDFSDTNGRGVIVTGLPYPPRMDPRVVLKMQFLDEMKGQGGAGGQFLSGQEWYRQQASRAVNQAIGRVIRHRQDYGAVFLCDHRFAFADARAQLPSWVRPHVRVYDNFGHVIRDVAQFFRVAERTMPAPAPRATAPSVRGEDAVSEAKSPGPFFSTRKAKSLDLHVPSLKQRSSGSPAAGDPQEPVPARQRPRGLLAALEHSEQRAGSPGEEQAHSCSTLSLLSEKRPAEEPRGGRKKIRLVSHPEEPVAGAQTDRAKLFMVAVKQELSQANFATFTQALQDYKGSDDFAALAACLGPLFAEDPKKHNLLQGFYQFVRPHHKQQFEEVCIQLTGRGCGYRPEHSIPRRQRAQPVLDPTGRTAPDPKLTVSTAAAQQLDPQEHLNQGRPHLSPRPPPTGDPGSQPQWGSGVPRAGKQGQHAVSAYLADARRALGSAGCSQLLAALTAYKQDDDLDKVLAVLAALTTAKPEDFPLLHRFSMFVRPHHKQRFSQTCTDLTGRPYPGMEPPGPQEERLAVPPVLTHRAPQPGPSRSEKTGKTQSKISSFLRQRPAGTVGAGGEDAGPSQSSGPPHGPAASEWGL
notes: Plasmid pSP51; also called hsRTEL1ΔE813-E821; source: S. cerevisiae strain ySP075, purified (anti-FLAG M2 resin, HiLoad Superdex 200); not shown: 2XFLAG, C-terminal, kept
Consider B3, for which the binding result in assay [4] and in assay [5] was “binds” in each case.
